According to publication PMC10397247:
Each block holds one binder with its values, some of them ahead of it.

How the values were obtained:
Assay in all cases: two-hybrid library CCNG1;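 further: natural log of median RNA to DNA barcode read ratio; higher means stronger binding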
4H344-bN = target: T1, 4H344-bN
T1 chain: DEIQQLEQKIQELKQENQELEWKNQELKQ

4H363-bN = target: T2, 4H363-bN
T2 chain: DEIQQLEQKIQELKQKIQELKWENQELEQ

4H3907-bN = target: T3, 4H3907-bN
T3 chain: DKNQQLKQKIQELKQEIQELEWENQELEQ

4H3961-bN = target: T4, 4H3961-bN
T4 chain: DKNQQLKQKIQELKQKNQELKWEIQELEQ

4H470-bN = target: T5, 4H470-bN
T5 chain: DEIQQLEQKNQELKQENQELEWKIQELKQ

4H2438-bH = target: T6, 4H2438-bH
T6 chain: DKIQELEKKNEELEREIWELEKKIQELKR

4H2473-bH = target: T7, 4H2473-bH
T7 chain: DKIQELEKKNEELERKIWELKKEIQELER

4H2503-bH = target: T8, 4H2503-bH
T8 chain: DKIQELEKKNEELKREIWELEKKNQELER

4H2588-bH = target: T9, 4H2588-bH
T9 chain: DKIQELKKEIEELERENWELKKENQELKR

4H2692-bH = target: T10, 4H2692-bH
T10 chain: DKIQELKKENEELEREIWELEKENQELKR

4H2717-bH = target: T11, 4H2717-bH
T11 chain: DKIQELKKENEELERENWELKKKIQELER

4H2839-bH = target: T12, 4H2839-bH
T12 chain: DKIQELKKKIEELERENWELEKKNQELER

4H2915-bH = target: T13, 4H2915-bH
T13 chain: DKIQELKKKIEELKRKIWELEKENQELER

4H3057-bH = target: T14, 4H3057-bH
T14 chain: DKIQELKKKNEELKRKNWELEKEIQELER

4H319-bH = target: T15, 4H319-bH
T15 chain: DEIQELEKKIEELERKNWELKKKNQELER

4H3277-bH = target: T16, 4H3277-bH
T16 chain: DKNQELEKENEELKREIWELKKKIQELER

4H348-bH = target: T17, 4H348-bH
T17 chain: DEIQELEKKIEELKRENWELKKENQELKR

4H40-bH = target: T18, 4H40-bH
T18 chain: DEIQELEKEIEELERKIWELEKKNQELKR

4H477-bH = target: T19, 4H477-bH
T19 chain: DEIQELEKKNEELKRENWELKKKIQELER

4H492-bH = target: T20, 4H492-bH
T20 chain: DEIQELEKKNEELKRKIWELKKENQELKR

4H741-bH = target: T21, 4H741-bH
T21 chain: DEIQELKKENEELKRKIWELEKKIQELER

4H1544-bH = target: T22, 4H1544-bH
T22 chain: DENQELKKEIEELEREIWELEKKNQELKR

4H1710-bH = target: T23, 4H1710-bH
T23 chain: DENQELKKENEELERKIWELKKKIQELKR

4H1899-bH = target: T24, 4H1899-bH
T24 chain: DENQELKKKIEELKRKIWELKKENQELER

4H1985-bH = target: T25, 4H1985-bH
T25 chain: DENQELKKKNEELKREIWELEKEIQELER

4H3070-bA = target: T26, 4H3070-bA
T26 chain: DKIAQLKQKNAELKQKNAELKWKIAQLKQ

4H3162-bH = target: T27, 4H3162-bH
T27 chain: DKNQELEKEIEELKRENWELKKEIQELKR

4H3175-bH = target: T28, 4H3175-bH
T28 chain: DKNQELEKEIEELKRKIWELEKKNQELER

4H3298-bH = target: T29, 4H3298-bH
T29 chain: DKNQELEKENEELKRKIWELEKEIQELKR

4H3462-bH = target: T30, 4H3462-bH
T30 chain: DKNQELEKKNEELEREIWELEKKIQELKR

4H3497-bH = target: T31, 4H3497-bH
T31 chain: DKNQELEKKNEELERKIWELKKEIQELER

4H3613-bH = target: T32, 4H3613-bH
T32 chain: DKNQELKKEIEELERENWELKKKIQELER

4H3628-bH = target: T33, 4H3628-bH
T33 chain: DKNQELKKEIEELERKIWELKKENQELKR

4H3817-bH = target: T34, 4H3817-bH
T34 chain: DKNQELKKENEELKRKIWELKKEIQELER

4H3858-bH = target: T35, 4H3858-bH
T35 chain: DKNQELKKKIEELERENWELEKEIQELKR

4H3926-bH = target: T36, 4H3926-bH
T36 chain: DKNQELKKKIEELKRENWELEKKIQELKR

4H3974-bH = target: T37, 4H3974-bH
T37 chain: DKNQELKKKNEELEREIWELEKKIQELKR

4H570-bH = target: T38, 4H570-bH
T38 chain: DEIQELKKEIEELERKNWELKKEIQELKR

4H591-bH = target: T39, 4H591-bH
T39 chain: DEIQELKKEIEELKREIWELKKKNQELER

4H626-bH = target: T40, 4H626-bH
T40 chain: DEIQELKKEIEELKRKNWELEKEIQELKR

4H850-bH = target: T41, 4H850-bH
T41 chain: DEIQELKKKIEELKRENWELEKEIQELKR

4H906-bH = target: T42, 4H906-bH
T42 chain: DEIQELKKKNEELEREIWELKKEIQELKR

- interaction score (4H344-bN): 0.297
- interaction score (4H363-bN): -2.06
- interaction score (4H3907-bN): -2.07
- interaction score (4H3961-bN): 0.044
- interaction score (4H470-bN): 0.132
Binder: DEIQQLEQKIQELKQENQELEWKNQELKQ [4H344-bN]

- interaction score (4H2438-bH): -0.05
- interaction score (4H2473-bH): 1.01
- interaction score (4H2503-bH): 0.644
- interaction score (4H2588-bH): -0.0625
- interaction score (4H2692-bH): 0.322
- interaction score (4H2717-bH): 0.187
- interaction score (4H2839-bH): 0.0743
- interaction score (4H2915-bH): 1.73
- interaction score (4H3057-bH): 1.41
- interaction score (4H319-bH): -1.85
- interaction score (4H3277-bH): -0.355
- interaction score (4H348-bH): -0.861
- interaction score (4H40-bH): -0.00537
- interaction score (4H477-bH): 0.358
- interaction score (4H492-bH): -0.644
- interaction score (4H741-bH): -0.318
Binder: DKIQELEKKNEELEREIWELEKKIQELKR [4H2438-bH]

- interaction score (4H1544-bH): 0.599
- interaction score (4H1710-bH): 0.154
- interaction score (4H1899-bH): 1.61
- interaction score (4H1985-bH): 0.533
- interaction score (4H3070-bA): 0.826
- interaction score (4H3162-bH): 0.879
- interaction score (4H3175-bH): -0.419
- interaction score (4H3277-bH): 0.893
- interaction score (4H3298-bH): 0.51
- interaction score (4H3462-bH): 0.608
- interaction score (4H3497-bH): 0.211
- interaction score (4H3613-bH): 0.423
- interaction score (4H3628-bH): -0.0215
- interaction score (4H3817-bH): 0.913
- interaction score (4H3858-bH): 0.651
- interaction score (4H3926-bH): 0.243
- interaction score (4H3974-bH): 0.61
- interaction score (4H570-bH): 0.232
- interaction score (4H591-bH): 1.2
- interaction score (4H626-bH): -0.838
- interaction score (4H850-bH): 1.29
- interaction score (4H906-bH): 0.0592
Binder: DENQELKKEIEELEREIWELEKKNQELKR [4H1544-bH]
